Patent US20110086767A1, “MUTANTS OF GLYCOSIDE HYDROLASES AND USES THEREOF FOR SYNTHESIZING COMPLEX OLIGOSACCHARIDES AND DISACCHARIDE INTERMEDIATES” (Institut Pasteur, priority 2008, published 2011)

Assays:
Format in all cases: biochemical
[1] = HPLC screening of double-mutant libraries for variants able to glucosylate D-GlcpNAc; conditions: α-D-Glcp-(1→4)-α-D-GlcpNAc (ED) from sucrose and D-GlcpNAc, microplate format
[2] = Enzymatic glucosylation of D-GlcpNAc derivatives: β-D-GlcpNAc-OAll; conditions: sucrose:acceptor 1:1 (146 mM); estimated according to peak areas
Procedure: The mutant F290K and the ASNPwt were tested on other D-GlcNAc derivatives (α-D-GlcpNAc-OMe, β-D-GlcpNAc-OMe, β-D-GlcpNAc-Oallyl and D-GlcNHTCA) used as potential acceptors. The enzymatic reaction was carried out using sucrose as donor and D-GlcNAc derivative as acceptor in a 1:1 ratio (146 mM)
Efficiency of the glucosylation reaction was evaluated by HPLC analysis of the acceptor reaction product synthesized a Biorad HPLC Carbohydrate Analysis column (HPX-87K column (300×7.8 mm))
Percentages of glucosylation rates were estimated according to peak areas as no reference was available.

[3] = HPLC screening of the single-mutant amylosucrase library for glucosylation of D-GlcpNAc; conditions: acceptor D-GlcpNAc
Procedure: The protocol was established to enable the rapid identification of clones for which D-GlcpNAc glucosylation was improved. To obtain higher amounts of enzymes and facilitate detection of glucosylated compounds upon HPLC screening, mutants were produced in 96-DeepWell Format plates. Storage microplates containing monomutants were thawed and replicated to inoculate a starter culture in 96-well microplates containing, in each well, 150 μL LB medium supplemented with ampicillin (100 μg/mL). After growth for 24 h at 30° C. under agitation (200 rpm), plates were duplicated into 96-Deep Well plates containing, in each well, 1.1 mL LB medium supplemented with ampicillin (100 μg/mL) and IPTG (1 mM) to induce GST-AS expression. Cultures were then grown for 24 h at 30° C. under agitation (200 rpm). Plates were centrifuged (20 min, 3000 g, 4° C.) and the supernatant was removed. The cell pellet was resuspended in 200 μL of lysozyme (0.5 mg/mL), followed by freezing at −80° C. for 8 to 12 h. After thawing at room temperature, 100 μL of sucrose and 100 μL of acceptor (each at a final concentration of 73 mM) were added to each well. Enzymatic reaction was incubated at 30° C. during 24 h under agitation. The DeepWell plates were then centrifuged (20 min, 3000 g, 4° C.) and 300 μL of the supernatant was transferred to a filter micro-plate (PVDF 0.2 μm) to be clarified. […]
Efficiency of the glucosylation reaction was evaluated by HPLC analysis of the acceptor reaction product synthesized when using D-GlcpNAc as acceptor using a Dionex P 680 series pump, a Shodex RI 101 series refractometer, a Dionex UVD 340 UV/Vis detector and an autosampler HTC PAL. […]
For each of the 7 selected positions, 19 single mutants were generated (corresponding to each possible amino acid change). […] Both sucrose consumption and disaccharide formation were determined in order to calculate the glucosylation rate defined as the molar ratio of monoglucosylated acceptor versus/sucrose consumed.

B1: F290K: single mutant F290K of N. polysaccharea amylosucrase 1G5A (protein)
chain: SPNSQYLKTRILDIYTPEQRAGIEKSEDWRQFSRRMDTHFPKLMNELDSVYGNNEALLPMLEMLLAQAWQSYSQRNSSLKDIDIARENNPDWILSNKQVGGVCYVDLFAGDLKGLKDKIPYFQELGLTYLHLMPLFKCPEGKSDGGYAVSSYRDVNPALGTIGDLREVIAALHEAGISAVVDFIFNHTSNEHEWAQRCAAGDPLFDNFYYIFPDRRMPDQYDRTLREIFPDQHPGGFSQLEDGRWVWTTFNSFQWDLNYSNPWVFRAMAGEMLFLANLGVDILRMDAVAKIWKQMGTSCENLPQAHALIRAFNAVMRIAAPAVFFKSEAIVHPDQVVQYIGQDECQIGYNPLQMALLWNTLATREVNLLHQALTYRHNLPEHTAWVNYVRSHDDIGWTFADEDAAYLGISGYDHRQFLNRFFVNRFDGSFARGVPFQYNPSTGDCRVSGTAAALVGLAQDDPHAVDRIKLLYSIALSTGGLPLIYLGDEVGTLNDDDWSQDSNKSDDSRWAHRPRYNEALYAQRNDPSTAAGQIYQDLRHMIAVRQSNPRFDGGRLVTFNTNNKHIIGYIRNNALLAFGNFSEYPQTVTAHTLQAMPFKAHDLIGGKTVSLNQDLTLQPYQVMWLEIA
- Glusosylation Yield to synthesize ED ([1]; listed as DM4_P2_D12): 41%
- Glusosylation Yield to synthesize ED ([1]; listed as DM4_P2_H4): 42%
- glucosylation of acceptor β-D-GlcpNAc-OAll [2]: > 95%
- increase of glucosylation rate compared to the wild type [3]: 45 fold
